# Laboratory results reported in PMC12431856, “Synthetic ZFTA fusions pinpoint disordered protein domain acquisition as a mechanism of brain tumorigenesis”.
# Target: ZFTA ZF1 (UniProt C9JLR9 81-172)
# Test: fluorescence polarization; FP: 25 mM citrate pH 5.6, 150 mM NaCl, 0.5 mM TCEP, 100 nM DNA, 15 nM-7.5 uM protein, 20 min, room temperature; NMR: same buffer with 5% D2O, 25 C
# Conditions: protein: recombinant; tags: none (His6-MBP removed by TEV); label: 5'-Cy5 on top strand; blunt
# Sequence of ZFTA ZF1 (C9JLR9 81-172): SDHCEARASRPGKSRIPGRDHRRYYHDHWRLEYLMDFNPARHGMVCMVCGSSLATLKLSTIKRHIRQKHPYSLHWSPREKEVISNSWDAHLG
binder,measurement,value
Cy5 PLAGL motif DNA (dsDNA) DNA 1: GATCCATGGCCCCATGGATG DNA 2: CATCCATGGGGCCATGGATC,binding result,binds
